Source: PMC4499870
Each block holds one substance with its values, some of them ahead of it.

Columns and labels:
[1] = target: CytERM-EBFP2 (Aequorea victoria)
[2] = target: CytERM-moxBFP (Aequorea victoria)

% cells with OSER structures (CytERM assay, n=138 cells) [1]: 63.7%
Substance: CytERM-EBFP2

% cells with OSER structures (CytERM assay, n=69 cells) (CytERM-mTagBFP): 43.5%
Substance: CytERM-mTagBFP

% cells with OSER structures (CytERM assay, n=109 cells) [2]: 0.9%
Substance: CytERM-moxBFP
